According to the Immune Epitope Database (IEDB):

Columns and labels:
[1] = biological target: HLA-A*02:06; assay: IEDB peptide-MHC binding, purified MHC/competitive/fluorescence; filed as Kd, often an IC50 or EC50 that approximates it; ≥ and ≤ were set here for values at or beyond the usual limits of such assays
[2] = biological target: HLA-A*02:01; assay: as above
[3] = biological target: HLA-A*68:02; assay: as above
[4] = biological target: HLA-A*02:03; assay: as above
[5] = biological target: HLA-A*26:02; assay: as above
[6] = biological target: HLA-A*02:01; assay: IEDB peptide-MHC binding, purified MHC/direct/fluorescence; filed as Kd, often an IC50 or EC50 that approximates it; ≥ and ≤ were set here for values at or beyond the usual limits of such assays
[7] = biological target: HLA-A*69:01; assay: as above; conditions: source organism: Camelpox virus M-96
[8] = biological target: HLA-A*26:01; assay: as above; conditions: source organism: Variola virus
[9] = biological target: HLA-A*01:01; assay: as above
[10] = biological target: HLA-B*57:01; assay: as above
[11] = biological target: HLA-A*11:01; assay: as above
[12] = biological target: HLA-B*58:01; assay: as above
[13] = biological target: HLA-A*31:01; assay: as above
[14] = biological target: HLA-B*07:02; assay: as above
[15] = biological target: HLA-A*26:03; assay: as above
[16] = biological target: HLA-B*08:02; assay: as above; conditions: source organism: Variola virus
[17] = biological target: HLA-B*15:17; assay: as above
[18] = biological target: HLA-A*24:03; assay: as above
[19] = biological target: HLA-B*18:01; assay: IEDB peptide-MHC binding, purified MHC/competitive/fluorescence; filed as Kd, often an IC50 or EC50 that approximates it; ≥ and ≤ were set here for values at or beyond the usual limits of such assays; conditions: source organism: Vaccinia virus WR
[20] = biological target: HLA-B*39:01; assay: as above
[21] = biological target: HLA-B*15:01; assay: as above
[22] = biological target: HLA-B*08:01; assay: as above; conditions: source organism: Vaccinia virus WR
[23] = biological target: HLA-B*27:05; assay: IEDB peptide-MHC binding, purified MHC/direct/fluorescence; filed as Kd, often an IC50 or EC50 that approximates it; ≥ and ≤ were set here for values at or beyond the usual limits of such assays
[24] = biological target: HLA-A*68:02; assay: as above; conditions: source organism: Brucella abortus
[25] = biological target: HLA-B*48:01; assay: as above
[26] = biological target: HLA-B*40:01; assay: as above
[27] = biological target: HLA-B*15:01; assay: as above; conditions: source organism: Brucella abortus
[28] = biological target: HLA-B*46:01; assay: as above
[29] = biological target: HLA-A*03:01; assay: as above
[30] = biological target: HLA-B*15:17; assay: IEDB peptide-MHC binding, purified MHC/competitive/fluorescence; filed as Kd, often an IC50 or EC50 that approximates it; ≥ and ≤ were set here for values at or beyond the usual limits of such assays; conditions: source organism: Brucella abortus S19
[31] = biological target: HLA-B*40:13; assay: as above; conditions: source organism: Escherichia coli 536
[32] = biological target: HLA-B*15:42; assay: as above
[33] = biological target: HLA-B*40:01; assay: as above; conditions: source organism: Escherichia coli 536
[34] = biological target: HLA-B*83:01; assay: as above
[35] = biological target: HLA-B*45:06; assay: as above
[36] = biological target: HLA-B*27:20; assay: as above; conditions: source organism: Escherichia coli 536
[37] = biological target: HLA-A*32:07; assay: as above
[38] = biological target: HLA-B*18:01; assay: IEDB peptide-MHC binding, purified MHC/direct/fluorescence; filed as Kd, often an IC50 or EC50 that approximates it; ≥ and ≤ were set here for values at or beyond the usual limits of such assays; conditions: source organism: Mycobacterium tuberculosis
[39] = biological target: HLA-B*51:01; assay: as above; conditions: source organism: Mycobacterium tuberculosis
[40] = biological target: HLA-B*38:01; assay: as above; conditions: source organism: Mycobacterium tuberculosis str. Haarlem
[41] = biological target: HLA-A*69:01; assay: IEDB peptide-MHC binding, purified MHC/competitive/fluorescence; filed as Kd, often an IC50 or EC50 that approximates it; ≥ and ≤ were set here for values at or beyond the usual limits of such assays; conditions: source organism: Mycobacterium tuberculosis variant bovis BCG str. Pasteur 1173P2
[42] = biological target: HLA-A*31:01; assay: as above; conditions: source organism: Mycobacterium tuberculosis variant bovis BCG str. Pasteur 1173P2
[43] = biological target: HLA-A*24:02; assay: IEDB peptide-MHC binding, purified MHC/direct/fluorescence; filed as Kd, often an IC50 or EC50 that approximates it; ≥ and ≤ were set here for values at or beyond the usual limits of such assays; conditions: source organism: Orthohantavirus hantanense
[44] = biological target: HLA-C*04:01; assay: IEDB peptide-MHC binding, purified MHC/competitive/fluorescence; filed as Kd, often an IC50 or EC50 that approximates it; ≥ and ≤ were set here for values at or beyond the usual limits of such assays; conditions: source organism: Hantaan virus 76-118
[45] = source organism: Human immunodeficiency virus 1
[46] = source organism: Camelpox virus M-96
[47] = source organism: Vaccinia virus WR
[48] = source organism: Brucella abortus
[49] = source organism: Escherichia coli 536
[50] = source organism: Mycobacterium tuberculosis
[51] = source organism: Mycobacterium tuberculosis variant bovis BCG str. Pasteur 1173P2
[52] = source organism: Hantaan virus 76-118

Which results are given for EELKSLFNTV?
Kd [1, 45]: 515 nM; Kd [2, 45]: 1670 nM; Kd [3, 45]: 326 nM; Kd [4, 45]: ≥ 20 µM; Kd [5, 45]: 1.08 µM

How did the Kd [6, 46] turn out when EYYFRNEVF was run?
Its Kd is no less than 20 µM.

What about the Kd [7] of the same sequence?
Its Kd is no less than 20 µM.

What about the Kd [8] of the same sequence?
Its Kd is no less than 20 µM.

What about the Kd [9, 46] of the same sequence?
The Kd was no less than 20 µM.

What about the Kd [10, 46] of the same sequence?
Its Kd is no less than 20 µM.

What about the Kd [11, 46] of the same sequence?
Its Kd is no less than 20 µM.

What about the Kd [12, 46] of the same sequence?
Its Kd is no less than 20 µM.

And the Kd [13, 46]?
Its Kd is no less than 20 µM.

What about the Kd [14, 46] of the same sequence?
The Kd was no less than 20 µM.

What about the Kd ([15]; source organism: Variola virus) of the same sequence?
Its Kd is no less than 20 µM.

What about the Kd [16] of the same sequence?
The Kd was no less than 20 µM.

And the Kd [17, 46]?
The Kd was no less than 20000 nM.

What about the Kd [18, 46] of the same sequence?
Its Kd is 195 nM.

What about the Kd [1, 47] of the same sequence?
Its Kd is 153 nM.

And the Kd [3, 47]?
The Kd was 3390 nM.

What about the Kd [19] of the same sequence?
The Kd was 7.8 nM.

What about the Kd [20, 47] of the same sequence?
Its Kd is no less than 20 µM.

What about the Kd [21, 47] of the same sequence?
The Kd was 4.38 µM.

And the Kd [22]?
The Kd was no less than 20 µM.

What about the Kd [5, 47] of the same sequence?
The Kd was 3.49 µM.

Which Kd [23, 48] does the source give for RFRCVGPAP here?
The Kd was no less than 20 µM.

What about the Kd [6, 48] of the same sequence?
Its Kd is no less than 20 µM.

And the Kd [24]?
Its Kd is no less than 20 µM.

What about the Kd [25, 48] of the same sequence?
The Kd was no less than 20 µM.

And the Kd [9, 48]?
Its Kd is no less than 20 µM.

And the Kd [10, 48]?
The Kd was no less than 20 µM.

What about the Kd [11, 48] of the same sequence?
Its Kd is no less than 20 µM.

And the Kd [26, 48]?
Its Kd is no less than 20 µM.

What about the Kd [27] of the same sequence?
Its Kd is no less than 20 µM.

What about the Kd [12, 48] of the same sequence?
Its Kd is no less than 20 µM.

What about the Kd [28, 48] of the same sequence?
The Kd was no less than 20 µM.

What about the Kd [13, 48] of the same sequence?
Its Kd is no less than 20 µM.

And the Kd [29, 48]?
The Kd was no less than 20 µM.

And the Kd [14, 48]?
The Kd was no less than 20 µM.

And the Kd ([15]; source organism: Brucella suis 1330)?
Its Kd is no less than 20 µM.

And the Kd [30]?
Its Kd is no less than 20 µM.

And the Kd ([5]; source organism: Brucella abortus S19)?
The Kd was no less than 20 µM.

What does the source list for RQRAVRMVL?
Kd [31]: 51.4 nM; Kd [32, 49]: 5.18 µM; Kd [20, 49]: ≥ 5 µM; Kd [33]: 1870 nM; Kd [21, 49]: 0.354 µM; Kd [34, 49]: ≥ 5 µM; Kd [35, 49]: ≥ 5 µM; Kd [36]: 1.6 nM; Kd [37, 49]: 30.7 nM

What does the source list for RVEESRARL?
Kd [23, 50]: ≥ 20 µM; Kd [38]: ≥ 20 µM; Kd [25, 50]: ≥ 20 µM; Kd [9, 50]: ≥ 20 µM; Kd [39]: ≥ 20 µM; Kd [10, 50]: 2.5 µM; Kd [11, 50]: ≥ 20 µM; Kd [26, 50]: ≥ 20 µM; Kd [12, 50]: ≥ 20 µM; Kd [28, 50]: ≥ 20 µM; Kd [29, 50]: ≥ 20 µM; Kd [17, 50]: 19.4 nM; Kd [40]: ≥ 20 µM; Kd [2, 51]: ≥ 20000 nM; Kd [4, 51]: ≥ 20 µM; Kd [41]: ≥ 20 µM; Kd [21, 51]: ≥ 20 µM; Kd [42]: ≥ 20 µM

Which Kd [43] does the source give for RYRTAVCGL here?
Its Kd is 24 nM.

What about the Kd ([18]; source organism: Orthohantavirus hantanense) of the same sequence?
The Kd was 6.7 nM.

What about the Kd [44] of the same sequence?
The Kd was no less than 5 µM.

What about the Kd [32, 52] of the same sequence?
Its Kd is no less than 5 µM.

And the Kd [34, 52]?
Its Kd is no less than 5 µM.

What about the Kd [35, 52] of the same sequence?
Its Kd is no less than 5 µM.

What about the Kd [37, 52] of the same sequence?
Its Kd is 7.6 nM.
